Results as given in patent US20110158954A1, “METHOD FOR PRODUCING GAMMA DELTA T CELL POPULATION” (priority 2007, published 2011).

Assays:
[1] = tested on: K562 cells; experiment: Cytotoxic activity of cultured γδ T cell population, Calcein-AM release; format: cell-based, human; settings: γδ T cells expanded 14 days with pamidronate on immobilized FN fragment; target cells K526 (so in the source); E/T 30; 4 hours
Description: The cytotoxic activity was determined for the cells on the fourteenth day from the initiation of culture prepared in Example 3-(1). The cytotoxic activity was evaluated by a method for assaying cytotoxic activity using Calcein-AM [Lichtenfels R. et al., J. Immunol. Methods 172(2), 227-239 (1994)]. […]
The cells on the fourteenth day from the initiation of culture prepared in Example 3-(1) were diluted with an RPMI 1640 medium containing 5% (v/v) human AB serum, 0.1 mM NEAA mixture, 1 mM sodium pyruvate (all manufactured by Cambrex), 2 mM L-glutamine, 10 μg/mL streptomycin sulfate (hereinafter referred to as “5HRPMI”) as effector cells, so as to have a concentration of 3×10^6 cells/mL. […] Upon the addition, the ratio of the effector cells (E) to the Calcein-labeled target cells (T) is expressed as an E/T ratio, and the measurements were made at an E/T ratio of 30. […] Thereafter, 100 μL of the culture supernatant was collected from each well, and the amount of Calcein released into the culture supernatant was determined with a fluorescence plate reader (Mithras LB 940, manufactured by BERTHOLD TECHNOLOGIES) (excited at 485 nm/measured at 535 nm). The “cytotoxic activity (%)” was calculated in accordance with the following formula.
Cytotoxic Activity (%)={(Measured Value in Each Well−Minimum Released Amount)/(Maximum Released Amount−Minimum Released Amount)}×100 […]

[2] = tested on: γδ T cells; experiment: Expansion of γδ T cell population using pamidronate, CH-296 plate (Example 3); format: cell-based; settings: human PBMCs; IMDM; pamidronate 5 μM; immobilized CH-296; day 14
Description: The expansion was carried out in the same manner as Example 2, except that a plate immobilized with CH-296 prepared in Example 1-(2) was used.
The ratio of the γδ T cells was analyzed according to flow cytometry for PBMCs prepared in Example 1-(1) and the cells on the fourteenth day from the initiation of culture prepared in Example 3-(1), in the same manner as in Example 1-(4). As a result, the ratio of γδ T cells was 8.9% for the PBMCs, and the ratio was from 96.0 to 96.9% for the cells on the fourteenth day from the initiation of culture.
(§1) The number of live cells was counted according to trypan blue staining method for the cells on the fourteenth day from the initiation of culture prepared in Example 3-(1). The expansion fold of γδ T cells was calculated in comparison of the counted number with the number of γδ T cells at the initiation of culture, in the same manner as in Example 1-(5).

[3] = tested on: γδ T cells; experiment: Expansion of γδ T cell population cultured using pamidronate (Example 2); format: cell-based; settings: human PBMCs; IMDM; stimulant pamidronate 5 μM; IL-2 100 U/mL; immobilized FN fragment; day 14
Description: PBMCs prepared in Example 1-(1) were suspended in IMDM containing 0.25% (w/v) HSA, so as to have a concentration of 2×10^6 cells/mL, to prepare a cell suspension. Thereafter, the above-mentioned cell suspension was added to a plate to which nothing was immobilized or a plate immobilized with H296-H296, prepared in Example 1-(2), in a volume of 1 mL/well each. Pamidronate was added to each well so as to have a final concentration of 5 μM. These plates were incubated at 37° C. in 5% CO2 (zeroth day of culture). On the second day from the initiation of culture, IL-2 was added to each well so as to have a final concentration of 100 U/mL. […]
The ratio of γδ T cells was analyzed according to flow cytometry for PBMCs prepared in Example 1-(1) and the cells on the fourteenth day from the initiation of culture prepared in Example 2-(1), in the same manner as in Example 1-(4). […]
as §1, with “2-(1).” for “3-(1).”

## CH-296: polypeptide comprising a cell binding domain, a heparin binding domain and a CS-1 domain of fibronectin (SEQ ID NO: 13)
[1]
  Cytotoxic Activity (%): 25.45%
[2]
  expansion fold of γδ T cells compared to control group: high expansion fold of γδ T cells during the culture, as compared to that of the control group

B1: H296-H296: modified fibronectin fragment in which two H-296's are connected to each other (SEQ ID NO: 22) (protein)
chain: AIPAPTDLKFTQVTPTSLSAQWTPPNVQLTGYRVRVTPKEKTGPMKEINLAPDSSSVVVSGLMVATKYEVSVYALKDTLTSRPAQGVVTTLENVSPPRRARVTDATETTITISWRTKTETITGFQVDAVPANGQTPIQRTIKPDVRSYTITGLQPGTDYKIYLYTLNDNARSSPVVIDASTAIDAPSNLRFLATTPNSLLVSWQPPRARITGYIIKYEKPGSPPREVVPRPRPGVTEATITGLEPGTEYTIYVIALKNNQKSEPLIGRKKTDELPQLVTLPHPNLHGPEILDVPSTAMAIPAPTDLKFTQVTPTSLSAQWTPPNVQLTGYRVRVTPKEKTGPMKEINLAPDSSSVVVSGLMVATKYEVSVYALKDTLTSRPAQGVVTTLENVSPPRRARVTDATETTITISWRTKTETITGFQVDAVPANGQTPIQRTIKPDVRSYTITGLQPGTDYKIYLYTLNDNARSSPVVIDASTAIDAPSNLRFLATTPNSLLVSWQPPRARITGYIIKYEKPGSPPREVVPRPRPGVTEATITGLEPGTEYTIYVIALKNNQKSEPLIGRKKTDELPQLVTLPHPNLHGPEILDVPST
modifications: Fibronectin fragment named H296-H296
[3]
  Expansion Fold of γδ T Cells (Folds) Fourteenth Day of Culture: ×101.8 Folds
